# From patent US20240076398A1
# Tests used:
# [1] = biological target: human C5aR1 (complement component 5a receptor 1) (human) (UniProt P21730); assay: flow cytometry, Expi293 with transient human C5aR1, secondary antibody alone; mock 3,052
# [2] = biological target: human C5aR1 (complement component 5a receptor 1) (human) (UniProt P21730); assay: flow cytometry, Expi293 with transient human C5aR1, 100 nM antibody; mock 3,722
# Sequence of human C5aR1 (complement component 5a receptor 1) (human) (P21730 other isoform, or with tags, fused parts or gaps): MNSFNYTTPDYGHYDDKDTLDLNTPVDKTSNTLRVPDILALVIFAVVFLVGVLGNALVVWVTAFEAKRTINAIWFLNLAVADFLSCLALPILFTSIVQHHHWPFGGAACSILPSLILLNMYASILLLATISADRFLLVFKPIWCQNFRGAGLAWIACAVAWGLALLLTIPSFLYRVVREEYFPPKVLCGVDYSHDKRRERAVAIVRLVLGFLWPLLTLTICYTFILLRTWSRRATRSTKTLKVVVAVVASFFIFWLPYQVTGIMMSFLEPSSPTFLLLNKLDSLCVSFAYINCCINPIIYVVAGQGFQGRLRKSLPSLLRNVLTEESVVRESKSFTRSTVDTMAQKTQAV
substance,measurement,setting,value
Anti-human-APC secondary antibody alone,geometric mean fluorescent intensity,[1],5350
Isotype control (Table 6) (antibody),geometric mean fluorescent intensity,[2],6550
